Measured values taken from the supplement of paper PMC12764529.
± gives the half width of the 95% confidence interval.

experiment: folding stability dG unfold from chymotrypsin proteolysis; higher = more stable
Outline: (§1)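 K50 was inferred by Bayesian fitting of sequencing counts obtained after protease digestion of designed mini-proteins. Unfolding free energy was derived by comparison with a sequence-predicted unfolded-state K50 and a shared folded-state K50, for each protease or both combined. The mini-proteins were under 80 residues, had no cysteine, were carried in a PA-tagged cDNA display construct, and were kept only if AlphaFold2 dimer inter-PAE exceeded 15.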

Sequence	folding stability dG unfold [kcal/mol]
SAGGKKNEKKPIEIDGVFFNPETGKLVKIGPAKIIVPKNAKIELEAEVFDPVTGEVKKVKFKFELPAGSAGG [r13_206_TrMRF]	0.816 ± 0.094
SATKTITIELPVDVPVEVLKEFFEALGFTEMEFYETEDPRTLVVRFTVPGDPVTVIVIVRPLPVPPDEPLSA [r9_1090_TrMRF]	3.57 ± 0.063
SMTTTTLPDGTTVTTLSDGTVKTVTHYPDSVVTETSPITYKLPDGREFTTKEEAEAYEKETGIPVSPALASA [r9_660_JUSTAS]	0.255 ± 0.23
SAGGKTIYFPISEARNFLKEAIDNGLDNIRIEVFNGDKPREIDIPPGNLDDLIDNIPPNSWVQIEPKSAGGS [r16_636_TrROS]	0.536 ± 0.089
SAGGMVIEKDGDYEYVLLLVDSPEGFPVEVAKELLKKEFGLKEIKVLSAKPLPNGIRLVLVKNKFEKSAGGS [r16_234_TrMRF]	1.57 ± 0.062
SAPPRTFIIPIERNPDGNVRLNIRMPGMEIEYEFPPGKDAEDALDKLSPHPGFNVELTEVDPNWIKITFSAG [r14_404_TrROS]	1.75 ± 0.35
SAGGSAGGDRIKIRFPDYRYEIEIPPGIESITTIQFHKDGWFTLTIPGNGQQIKIPIPPPDDDPSAGGSAGG [r6_370_TrROS]	1.73 ± 0.15
SNYLMIRIKEIDPNNPNKIKIEDIHPMPDNGNVQINIEHPGQEIYVMFNSADDAEEFINTLLKNYGLKPESA [r9_258_TrROS]	1.6 ± 0.11
SAGGSFEVEVEVERYPEENYYYVKIPIRLPNNGKKIPLDVPVPADDPEPAEKWAKFIAKELAKQGISAGGSA [r2_221_TrROS]	-0.1 ± 0.27
SAGGSAGGSAGDLLKEALEEAKKAGIKTATITVEVDGKLYTLTVKLEPKPPPKEVKVEKKSAGGSAGGSAGG [r17_475_TrROS_Hall]	0.814 ± 0.17
SAPKLEIEEVHVNPNDGMVMITFQIDNLPPGLKITIKPKNGKPRRWTGEPGKPIMFMIPPGVDDIEIEWSAG [r14_671_TrROS]	2.06 ± 0.11
SAGGSAGGSEMEVKVTVEPAPAGAPPGAVVRVEVEFEDGFRITVRFTFVDGKLRAEVTEIKPVSAGGSAGGS [r12_1049_TrROS_Hall]	3.65 ± 0.061
SAGGSAGGSAGGMKTIVFTTLSPEEAQALADELKAKGVDVEVTYEPVPVTPRPLPLNRLSAGGSAGGSAGGS [r10_361_JUSTAS]	3.06 ± 0.063
SAGLKFSITKAEWENGYLTVKVMVTGPDGQSQPFTITIRIKPVPKPPPKMTEEKDPNGKKKWEYKDPDSAGG [r19_172_TrROS]	2.6 ± 0.072
SAGGSAGGSAGGKMWIMIPKNEPINLPPGFDKVEIMTNPDDGYVMIRVDSPEDFKRLLEASAGGSAGGSAGG [r7_172_TrROS]	0.866 ± 0.058
SAGGMLPLVVKVKTPDGEEYTFVVAYNPETSELWLPLPKEPTWRNVPLTEASSIPEFQIVEARPLALESAGG [r13_994_TrMRF]	0.943 ± 0.064
SAGGSAGGWPLMVEYTPPGDGKTQTYPIPIKGPLSEIKDQIKENMPPGFREVEISPANIEKILKSAGGSAGG [r6_889_TrROS]	-0.952 ± 0.5
SMVTVDEKEDPNSDNKIYTVSLPENGEDVITITKAPDGTTTVTLHYPDGSTTTKTFPGNTPVTEAIKLLLSA [r9_346_JUSTAS]	1.39 ± 0.083
SAGGSAGGLEEELKLAKENPGEFEGVTVKLESVIEVTTTDPTTGKPTTKLVRVESEITFPPGLKSAGGSAGG [r6_560_JUSTAS]	1.05 ± 0.1
SAPKNYRFKIYFPNGVEFTIPPGWDLEIEEFDPEDGVIRIKMTRYDKDDGKPVEKHDFPFPFRILEPDPSAG [r14_927_TrROS]	1.84 ± 0.23
SAGGETKTITIKVDGKLVTITVKKNKNGEELVTVKVYENGKLVEEVTMSKDELEELAKKLGLSVEELKSAGG [r13_108_TrROS_Hall]	3.81 ± 0.051

Sequence	folding stability dG unfold [kcal/mol]
SKEEEEEIEIEIVVPNLTEEEIKELAKELLEKKGYEVEEIEITEEELEELKNKKPGDEVVIKIKIKVKKKSA [r9_1163_TrROS_Hall]	2.27 ± 0.073
SDKIKNMTIEEILKKLPKGVKVGEKVEIEIDGKKITITKVEVVKDKNGKEIKRIYIEVEIDGEKIIIEIESA [r9_279_TrROS_Hall]	2.36 ± 0.27
SAGGVPVPPEVEYPISPEAVELAEKLAPELGAKNFKVTVVSVEPGYITVEITLPDTGKTVTVTIPLGSAGGS [r16_281_JUSTAS]	1.987 ± 0.015
SAGGSAGGNMIPVKARMKWPDGKEFPFEIMVQYQPDGQMQIEIQNPGDGETVTFPNMKLIDVEISAGGSAGG [r6_255_TrROS]	0.828 ± 0.021
SAGGSPVLKVEVFELEEDKLLLKIYFPKEEAGLTPEQKEALAKAIQELFPNTKAFTTDEELYIVVDSAGGSA [r2_256_TrMRF]	2.38 ± 0.15
SAGKKIKLELYFEENGLKVEVEFDEETGVITVKVELKDGTRIEAKFELLPDGTLKLEIKIEKVKPGEKPSAG [r5_766_TrROS_Hall]	3.87 ± 0.27
SAGGSAGGSAGGMPADEKVTTSPEIVTLPNGTRVVVTKSTSPDPSVSSTSVTVLPPNVPPSAGGSAGGSAGG [r11_338_JUSTAS]	1.38 ± 0.027
SAGGSAMLRVFEKEHPGPFSITVLAGPGLSEEEIEELAEKLAEKKIEIEKKKIELEKKGKKPIFKKSAGGSA [r15_704_JUSTAS]	0.235 ± 0.43
SAGGSAGGSAGGWVIRVTIKHPNGKKRTIMIPMPPDNIEEVAKNLMPQGYEIKEPEIFPGSAGGSAGGSAGG [r7_159_TrROS]	0.902 ± 0.36
SAGGKKVEITIEASPEEAEELAKKLEELFPDVKVEVVEVKPEEPVRVTVRVEVKVELSPEELKKLLESAGGS [r16_180_TrROS_Hall]	1.37 ± 0.11
SAKKTITITKITLTLFNKDGKPVATAEITSIEITYDPKTNTFTITATVKVTLPNGKTFTFKLTITLPVKSAG [r14_609_TrROS_Hall]	4.87 ± 0.21
SAGGSAGGSAGFFRVDIDIMMSPEMLDLMKKNPGLPPGQEIPIMVVIKREPVPYDPNGKLSAGGSAGGSAGG [r17_194_TrROS]	2.1 ± 0.043
SAGGSSPLLSPVTLTREVPASEPMAPEEVEAFAAAVAAEVAAAGMTVDFSVERHPDREVLTVTVTVASSAGG [r13_442_JUSTAS]	0.678 ± 0.046
SAGATATPPAVRVATARLPLPFGTGTEVTVTTYSDGSATVTARFPDGVVATAFVSPDGSAVVTVAPAGGSAG [r5_168_TrMRF]	2.955 ± 0.024
SAGGMPEDMKLKFKVVDFRPHPHPDGYQIVELFYNDKLLRRLRVPPGLAVKLAKELPEDVALVTLPESAGGS [r8_41_TrMRF]	1.53 ± 0.14
SAGGSAGGSALEVPSNYLVEVRFPNETRLIPVEDLDAFFEAYPDVPWTDIRVLDPKTGKPISAGGSAGGSAG [r3_134_TrMRF]	1.923 ± 0.0098
SAGGSAGGSAGKAKIEVVEVDKNGKVRLKIKLENGEVKEIENADEITINGKKIKVEKIEPSAGGSAGGSAGG [r11_1017_TrROS_Hall]	1.52 ± 0.042
SAGGSAGGSKYYRVRFKEEIEITLENGEKLKIKKGDVIVVPSKEDLDRLKALFPNLEVEVEPVSAGGSAGGS [r12_987_TrROS_Hall]	3.91 ± 0.043
SVEKARERLEKLGFKLVSVDPLEDGSVVLTFEFPDNKVVVLVDEDGNARIVAYNPSDGKFSEATFNLDDLSA [r9_2_TrMRF]	2.577 ± 0.024
SAGGSAGGSAGLEIKIPNGNKTITVEKTKDYYKATIYFPETGEKVEFTFPPNVSLSLLDISAGGSAGGSAGG [r11_772_TrMRF]	1.12 ± 0.073
SAGGSAGGSAGPIDPNSTRPVPADYVVIRIRGDEKPRYFVVHPEYAKEFAERHGAELYYESAGGSAGGSAGG [r17_109_TrMRF]	0.582 ± 0.082

experiment: folding stability dG unfold from trypsin proteolysis; higher = more stable
Outline: as §1

Sequence	folding stability dG unfold [kcal/mol]
SAGGKKNEKKPIEIDGVFFNPETGKLVKIGPAKIIVPKNAKIELEAEVFDPVTGEVKKVKFKFELPAGSAGG [r13_206_TrMRF]	0.548 ± 0.057
SATKTITIELPVDVPVEVLKEFFEALGFTEMEFYETEDPRTLVVRFTVPGDPVTVIVIVRPLPVPPDEPLSA [r9_1090_TrMRF]	3.29 ± 0.16
SMTTTTLPDGTTVTTLSDGTVKTVTHYPDSVVTETSPITYKLPDGREFTTKEEAEAYEKETGIPVSPALASA [r9_660_JUSTAS]	0.62 ± 0.036
SAGGKTIYFPISEARNFLKEAIDNGLDNIRIEVFNGDKPREIDIPPGNLDDLIDNIPPNSWVQIEPKSAGGS [r16_636_TrROS]	-0.645 ± 0.095
SAGGMVIEKDGDYEYVLLLVDSPEGFPVEVAKELLKKEFGLKEIKVLSAKPLPNGIRLVLVKNKFEKSAGGS [r16_234_TrMRF]	0.875 ± 0.023
SAPPRTFIIPIERNPDGNVRLNIRMPGMEIEYEFPPGKDAEDALDKLSPHPGFNVELTEVDPNWIKITFSAG [r14_404_TrROS]	1.3 ± 0.23
SAGGSAGGDRIKIRFPDYRYEIEIPPGIESITTIQFHKDGWFTLTIPGNGQQIKIPIPPPDDDPSAGGSAGG [r6_370_TrROS]	1.23 ± 0.057
SNYLMIRIKEIDPNNPNKIKIEDIHPMPDNGNVQINIEHPGQEIYVMFNSADDAEEFINTLLKNYGLKPESA [r9_258_TrROS]	0.925 ± 0.053
SAGGSFEVEVEVERYPEENYYYVKIPIRLPNNGKKIPLDVPVPADDPEPAEKWAKFIAKELAKQGISAGGSA [r2_221_TrROS]	-0.0866 ± 0.14
SAGGSAGGSAGDLLKEALEEAKKAGIKTATITVEVDGKLYTLTVKLEPKPPPKEVKVEKKSAGGSAGGSAGG [r17_475_TrROS_Hall]	-0.977 ± 0.51
SAPKLEIEEVHVNPNDGMVMITFQIDNLPPGLKITIKPKNGKPRRWTGEPGKPIMFMIPPGVDDIEIEWSAG [r14_671_TrROS]	1.64 ± 0.048
SAGGSAGGSEMEVKVTVEPAPAGAPPGAVVRVEVEFEDGFRITVRFTFVDGKLRAEVTEIKPVSAGGSAGGS [r12_1049_TrROS_Hall]	2.92 ± 0.085
SAGGSAGGSAGGMKTIVFTTLSPEEAQALADELKAKGVDVEVTYEPVPVTPRPLPLNRLSAGGSAGGSAGGS [r10_361_JUSTAS]	2.04 ± 0.059
SAGLKFSITKAEWENGYLTVKVMVTGPDGQSQPFTITIRIKPVPKPPPKMTEEKDPNGKKKWEYKDPDSAGG [r19_172_TrROS]	2.26 ± 0.11
SAGGSAGGSAGGKMWIMIPKNEPINLPPGFDKVEIMTNPDDGYVMIRVDSPEDFKRLLEASAGGSAGGSAGG [r7_172_TrROS]	1.405 ± 0.01
SAGGMLPLVVKVKTPDGEEYTFVVAYNPETSELWLPLPKEPTWRNVPLTEASSIPEFQIVEARPLALESAGG [r13_994_TrMRF]	0.348 ± 0.056
SAGGSAGGWPLMVEYTPPGDGKTQTYPIPIKGPLSEIKDQIKENMPPGFREVEISPANIEKILKSAGGSAGG [r6_889_TrROS]	-0.76 ± 0.39
SMVTVDEKEDPNSDNKIYTVSLPENGEDVITITKAPDGTTTVTLHYPDGSTTTKTFPGNTPVTEAIKLLLSA [r9_346_JUSTAS]	2.23 ± 0.12
SAGGSAGGLEEELKLAKENPGEFEGVTVKLESVIEVTTTDPTTGKPTTKLVRVESEITFPPGLKSAGGSAGG [r6_560_JUSTAS]	0.2 ± 0.13
SAPKNYRFKIYFPNGVEFTIPPGWDLEIEEFDPEDGVIRIKMTRYDKDDGKPVEKHDFPFPFRILEPDPSAG [r14_927_TrROS]	1.73 ± 0.06
SAGGETKTITIKVDGKLVTITVKKNKNGEELVTVKVYENGKLVEEVTMSKDELEELAKKLGLSVEELKSAGG [r13_108_TrROS_Hall]	3.27 ± 0.091
